Experimental data as given in patent US20120195900A1 (AbbVie / Abbott, published 2012).
Like-named read-outs stand apart in the source and are kept apart here.

Assays:
human IL-12 [1] = target: T1, human IL-12 (human, UniProt P29459 23-219; P29460 23-328, biotinylated in the ELISA (site not stated)); test: ELISA, biotinylated IL-12 on streptavidin plates, anti-human IgG detection (column head: ED50)
T1 construct: The ELISA paragraph says only 'Biotinylated IL-12'; the bioassay says 'human IL-12' / 'rhIL-12'; also called rhIL-12; Biotinylated IL-12
T1 sequence (looked up) 1: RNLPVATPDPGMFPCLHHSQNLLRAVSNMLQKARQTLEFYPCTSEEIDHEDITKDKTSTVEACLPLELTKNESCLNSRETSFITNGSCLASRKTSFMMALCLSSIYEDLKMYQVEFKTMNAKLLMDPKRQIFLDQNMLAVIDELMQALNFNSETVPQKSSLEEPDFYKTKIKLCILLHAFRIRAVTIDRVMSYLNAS
T1 sequence (looked up) 2: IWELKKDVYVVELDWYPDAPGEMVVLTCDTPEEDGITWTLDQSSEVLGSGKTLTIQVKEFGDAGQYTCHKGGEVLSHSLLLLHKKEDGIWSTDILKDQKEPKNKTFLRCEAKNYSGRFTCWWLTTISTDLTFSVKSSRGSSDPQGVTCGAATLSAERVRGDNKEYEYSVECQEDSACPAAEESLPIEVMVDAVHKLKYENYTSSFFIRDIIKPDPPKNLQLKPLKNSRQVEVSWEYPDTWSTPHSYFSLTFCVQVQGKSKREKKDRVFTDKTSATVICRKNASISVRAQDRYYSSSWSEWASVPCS

human IL-12 [2] = target: T1, human IL-12; test: cell-based or functional assay
recombinant human IL-18 [3] = target: T2, recombinant human IL-18 (human, UniProt Q14116 37-193); test: cell-based or functional assay
recombinant human IL-18 [4] = target: T2, recombinant human IL-18; test: cell-based or functional assay; remark: listed apart in the source
hIL-13 = hIL-13 (human, UniProt P35225 35-146, limits assumed); test: cell-based or functional assay
Sequence of hIL-13 (P35225 35-146 limits assumed): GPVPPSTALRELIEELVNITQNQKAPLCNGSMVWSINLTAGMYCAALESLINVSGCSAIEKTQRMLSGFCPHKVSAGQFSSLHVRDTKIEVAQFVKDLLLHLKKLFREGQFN

B1: 1D4.1 (anti-hIL-12 monoclonal antibody) (antibody, V domains shown)
VH: EVTLRESGPALVKPTQTLTLTCTFSGFSLSKSVMGVSWIRQPPGKALEWLAHIYWDDDKYYNPSLKSRLTISKDTSKNQVVLTMTNMDPVDTATYYCARRGIRSAMDYWGQGTTVTVSS
VL: DIVMTQSPDSLAVSLGERATINCKASQSVSNDVAWYQQKPGQPPKLLIYYASNRYTGVPDRFSGSGSGTDFTLTISSLQAEDVAVYYCQQDYNSPWTFGGGTKVEIKR
notes: also called Control monoclonal antibody; parental monoclonal antibody 1D4.1
EC50 (human IL-12 [1]): 380 pM | neutralization potency (IC50, nM), human IL-12 bioassay: IFN-γ release from PHA blast cells (human IL-12 [2]): 0.624 nM

B2: mAb 2.5 (anti-hIL-18 monoclonal antibody) (antibody, V domains shown)
VH: EVQLVQSGTEVKKPGESLKISCKGSGYTVTSYWIGWVRQMPGKGLEWMGFIYPGDSETRYSPTFQGQVTISADKSFNTAFLQWSSLKASDTAMYYCARVGSGWYPYTFDIWGQGTMVTVSS
VL: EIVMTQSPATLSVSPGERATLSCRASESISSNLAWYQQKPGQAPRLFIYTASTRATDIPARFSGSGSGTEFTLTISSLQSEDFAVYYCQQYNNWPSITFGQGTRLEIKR
neutralization potency (IC50, nM), KG-1 bioassay: IFN-γ production (recombinant human IL-18 [3]): 0.58 nM | neutralization potency (IC50, nM), KG-1 bioassay: IFN-γ production (recombinant human IL-18 [4]): 0.1 nM

B3: 13C5.5L3F (anti-IL-13 monoclonal antibody) (antibody, V domains shown)
VH: EVTLRESGPGLVKPTQTLTLTCTLYGFSLSTSDMGVDWIRQPPGKGLEWLAHIWWDDVKRYNPALKSRLTISKDTSKNQVVLKLTSVDPVDTATYYCARTVSSGYIYYAMDYWGQGTLVTVSS
VL: DIQMTQSPSSLSASVGDRVTISCRASQDIRNYLNWYQQKPGKAPKLLIFYTSKLHSGVPSRFSGSGSGTDYTLTISSLQPEDIATYYCQQGLTPPLTFGGGTKVEIKR
neutralization potency (IC50, nM), A-549 bioassay: TARC production (hIL-13): 0.05 nM
